Test results from US20230357348A1 (AstraZeneca / MedImmune, published 2023).
Starred links: 1 amine or outer side, 2 acyl side, 3 side chain; linkers in the order of their positions; H or OH if unused. Non-standard residues stand in square brackets, D forms with d. Groups on a side chain read outwards from the residue. No end group written: not given here. *: point of attachment. C20 diacid = O=C(O)CCCCCCCCCCCCCCCCCCC(=O)*; C18 diacid = O=C(O)CCCCCCCCCCCCCCCCC(=O)*; γGlu = O=C(O)[C@H](CCC(=O)[*:2])N[*:1]; αMeF = C[C@](N)(Cc1ccccc1)C(=O)O; AEEA = NCCOCCOCC(=O)O; Aib = CC(C)(N)C(=O)O

How the values were obtained:
[1] = target: human glucagon receptor (hGCGR) (human, UniProt P47871 26-477); assay: cell-based or functional assay
[2] = target: human GLP-1 receptor (hGLP-1R) (human, UniProt P43220 24-463); assay: cell-based or functional assay

human glucagon receptor (hGCGR), sequence (P47871 26-477): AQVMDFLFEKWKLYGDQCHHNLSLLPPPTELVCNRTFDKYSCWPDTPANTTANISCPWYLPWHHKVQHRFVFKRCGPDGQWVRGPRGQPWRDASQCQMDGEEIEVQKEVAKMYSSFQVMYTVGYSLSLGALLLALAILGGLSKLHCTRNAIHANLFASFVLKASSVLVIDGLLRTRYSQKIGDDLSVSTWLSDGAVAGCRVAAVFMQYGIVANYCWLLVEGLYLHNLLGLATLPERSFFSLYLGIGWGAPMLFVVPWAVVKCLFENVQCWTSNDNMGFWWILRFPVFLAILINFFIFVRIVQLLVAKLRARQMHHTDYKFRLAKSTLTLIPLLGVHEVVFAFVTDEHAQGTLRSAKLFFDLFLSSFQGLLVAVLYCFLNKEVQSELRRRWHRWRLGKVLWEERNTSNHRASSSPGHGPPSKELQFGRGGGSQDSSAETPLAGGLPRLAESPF

| Binder | hGluc-R EC50 (pM) [1] [pM] | hGLP-1R EC50 (pM) [2] [pM] |
| --- | --- | --- |
| H[Aib]QGTFTSDVSK[αMeF]LDTK([AEEA-AEEA-γGlu-γGlu-C20 diacid])RARDFVQWLLE[Aib]G-OH (N-terminus assumed; SMILES CC(C)C[C@H](NC(=O)[C@H](Cc1c[nH]c2ccccc12)NC(=O)[C@H](CCC(N)=O)NC(=O)[C@@H](NC(=O)[C@H](Cc1ccccc1)NC(=O)[C@H](CC(=O)O)NC(=O)[C@H](CCCNC(=N)N)NC(=O)[C@H](C)NC(=O)[C@H](CCCNC(=N)N)NC(=O)[C@H](CCCCNC(=O)COCCOCCNC(=O)COCCOCCNC(=O)CC[C@H](NC(=O)CC[C@H](NC(=O)CCCCCCCCCCCCCCCCCCC(=O)O)C(=O)O)C(=O)O)NC(=O)[C@@H](NC(=O)[C@H](CC(=O)O)NC(=O)[C@H](CC(C)C)NC(=O)[C@](C)(Cc1ccccc1)NC(=O)[C@H](CCCCN)NC(=O)[C@H](CO)NC(=O)[C@@H](NC(=O)[C@H](CC(=O)O)NC(=O)[C@H](CO)NC(=O)[C@@H](NC(=O)[C@H](Cc1ccccc1)NC(=O)[C@@H](NC(=O)CNC(=O)[C@H](CCC(N)=O)NC(=O)C(C)(C)NC(=O)[C@@H](N)Cc1c[nH]cn1)[C@@H](C)O)[C@@H](C)O)C(C)C)[C@@H](C)O)C(C)C)C(=O)N[C@@H](CC(C)C)C(=O)N[C@@H](CCC(=O)O)C(=O)NC(C)(C)C(=O)NCC(=O)O) [Peptide 449] | 242 | 207 |
| H[Aib]QGTFTSDVSK[αMeF]LDKK([AEEA-AEEA-γGlu-γGlu-C18 diacid])RAQDFVRWLLE[Aib]G-OH (N-terminus assumed; SMILES CC(C)C[C@H](NC(=O)[C@H](Cc1c[nH]c2ccccc12)NC(=O)[C@H](CCCNC(=N)N)NC(=O)[C@@H](NC(=O)[C@H](Cc1ccccc1)NC(=O)[C@H](CC(=O)O)NC(=O)[C@H](CCC(N)=O)NC(=O)[C@H](C)NC(=O)[C@H](CCCNC(=N)N)NC(=O)[C@H](CCCCNC(=O)COCCOCCNC(=O)COCCOCCNC(=O)CC[C@H](NC(=O)CC[C@H](NC(=O)CCCCCCCCCCCCCCCCC(=O)O)C(=O)O)C(=O)O)NC(=O)[C@H](CCCCN)NC(=O)[C@H](CC(=O)O)NC(=O)[C@H](CC(C)C)NC(=O)[C@](C)(Cc1ccccc1)NC(=O)[C@H](CCCCN)NC(=O)[C@H](CO)NC(=O)[C@@H](NC(=O)[C@H](CC(=O)O)NC(=O)[C@H](CO)NC(=O)[C@@H](NC(=O)[C@H](Cc1ccccc1)NC(=O)[C@@H](NC(=O)CNC(=O)[C@H](CCC(N)=O)NC(=O)C(C)(C)NC(=O)[C@@H](N)Cc1c[nH]cn1)[C@@H](C)O)[C@@H](C)O)C(C)C)C(C)C)C(=O)N[C@@H](CC(C)C)C(=O)N[C@@H](CCC(=O)O)C(=O)NC(C)(C)C(=O)NCC(=O)O) [Peptide 450] | 57.8 | 57.3 |
| H[Aib]QGTFTSDVSK[αMeF]LDKK([AEEA-AEEA-γGlu-C20 diacid])RARDFVLWLL[Aib]E-NH2 (N-terminus assumed; SMILES CC(C)C[C@H](NC(=O)[C@H](Cc1c[nH]c2ccccc12)NC(=O)[C@H](CC(C)C)NC(=O)[C@@H](NC(=O)[C@H](Cc1ccccc1)NC(=O)[C@H](CC(=O)O)NC(=O)[C@H](CCCNC(=N)N)NC(=O)[C@H](C)NC(=O)[C@H](CCCNC(=N)N)NC(=O)[C@H](CCCCNC(=O)COCCOCCNC(=O)COCCOCCNC(=O)CC[C@H](NC(=O)CCCCCCCCCCCCCCCCCCC(=O)O)C(=O)O)NC(=O)[C@H](CCCCN)NC(=O)[C@H](CC(=O)O)NC(=O)[C@H](CC(C)C)NC(=O)[C@](C)(Cc1ccccc1)NC(=O)[C@H](CCCCN)NC(=O)[C@H](CO)NC(=O)[C@@H](NC(=O)[C@H](CC(=O)O)NC(=O)[C@H](CO)NC(=O)[C@@H](NC(=O)[C@H](Cc1ccccc1)NC(=O)[C@@H](NC(=O)CNC(=O)[C@H](CCC(N)=O)NC(=O)C(C)(C)NC(=O)[C@@H](N)Cc1c[nH]cn1)[C@@H](C)O)[C@@H](C)O)C(C)C)C(C)C)C(=O)N[C@@H](CC(C)C)C(=O)NC(C)(C)C(=O)N[C@@H](CCC(=O)O)C(N)=O) [Peptide 451] | 503 | 895 |
| H[Aib]QGTFTSDVSK[αMeF]LDKK([AEEA-AEEA-γGlu-C20 diacid])RALDFVRWLL[Aib]E-NH2 (N-terminus assumed; SMILES CC(C)C[C@H](NC(=O)[C@H](C)NC(=O)[C@H](CCCNC(=N)N)NC(=O)[C@H](CCCCNC(=O)COCCOCCNC(=O)COCCOCCNC(=O)CC[C@H](NC(=O)CCCCCCCCCCCCCCCCCCC(=O)O)C(=O)O)NC(=O)[C@H](CCCCN)NC(=O)[C@H](CC(=O)O)NC(=O)[C@H](CC(C)C)NC(=O)[C@](C)(Cc1ccccc1)NC(=O)[C@H](CCCCN)NC(=O)[C@H](CO)NC(=O)[C@@H](NC(=O)[C@H](CC(=O)O)NC(=O)[C@H](CO)NC(=O)[C@@H](NC(=O)[C@H](Cc1ccccc1)NC(=O)[C@@H](NC(=O)CNC(=O)[C@H](CCC(N)=O)NC(=O)C(C)(C)NC(=O)[C@@H](N)Cc1c[nH]cn1)[C@@H](C)O)[C@@H](C)O)C(C)C)C(=O)N[C@@H](CC(=O)O)C(=O)N[C@@H](Cc1ccccc1)C(=O)N[C@H](C(=O)N[C@@H](CCCNC(=N)N)C(=O)N[C@@H](Cc1c[nH]c2ccccc12)C(=O)N[C@@H](CC(C)C)C(=O)N[C@@H](CC(C)C)C(=O)NC(C)(C)C(=O)N[C@@H](CCC(=O)O)C(N)=O)C(C)C) [Peptide 452] | 151 | 495 |
| H[Aib]QGTFTSDVSK[αMeF]LDKK([AEEA-AEEA-γGlu-C20 diacid])RAQDFVRWLLE[Aib]G-NH2 [Peptide 453] | 162 | 170 |
| H[Aib]QGTFTSDVSK[αMeF]LDKK([AEEA-AEEA-γGlu-C20 diacid])RAQDFVRWLEA[Aib]G-NH2 (N-terminus assumed; SMILES CC(C)C[C@H](NC(=O)[C@H](Cc1c[nH]c2ccccc12)NC(=O)[C@H](CCCNC(=N)N)NC(=O)[C@@H](NC(=O)[C@H](Cc1ccccc1)NC(=O)[C@H](CC(=O)O)NC(=O)[C@H](CCC(N)=O)NC(=O)[C@H](C)NC(=O)[C@H](CCCNC(=N)N)NC(=O)[C@H](CCCCNC(=O)COCCOCCNC(=O)COCCOCCNC(=O)CC[C@H](NC(=O)CCCCCCCCCCCCCCCCCCC(=O)O)C(=O)O)NC(=O)[C@H](CCCCN)NC(=O)[C@H](CC(=O)O)NC(=O)[C@H](CC(C)C)NC(=O)[C@](C)(Cc1ccccc1)NC(=O)[C@H](CCCCN)NC(=O)[C@H](CO)NC(=O)[C@@H](NC(=O)[C@H](CC(=O)O)NC(=O)[C@H](CO)NC(=O)[C@@H](NC(=O)[C@H](Cc1ccccc1)NC(=O)[C@@H](NC(=O)CNC(=O)[C@H](CCC(N)=O)NC(=O)C(C)(C)NC(=O)[C@@H](N)Cc1c[nH]cn1)[C@@H](C)O)[C@@H](C)O)C(C)C)C(C)C)C(=O)N[C@@H](CCC(=O)O)C(=O)N[C@@H](C)C(=O)NC(C)(C)C(=O)NCC(N)=O) [Peptide 454] | 274 | 173 |
| H[Aib]QGTFTSDVSK[αMeF]LDKK([AEEA-AEEA-γGlu-γGlu-C20 diacid])RAQDFVRWLL[Aib]E-NH2 (N-terminus assumed; SMILES CC(C)C[C@H](NC(=O)[C@H](Cc1c[nH]c2ccccc12)NC(=O)[C@H](CCCNC(=N)N)NC(=O)[C@@H](NC(=O)[C@H](Cc1ccccc1)NC(=O)[C@H](CC(=O)O)NC(=O)[C@H](CCC(N)=O)NC(=O)[C@H](C)NC(=O)[C@H](CCCNC(=N)N)NC(=O)[C@H](CCCCNC(=O)COCCOCCNC(=O)COCCOCCNC(=O)CC[C@H](NC(=O)CC[C@H](NC(=O)CCCCCCCCCCCCCCCCCCC(=O)O)C(=O)O)C(=O)O)NC(=O)[C@H](CCCCN)NC(=O)[C@H](CC(=O)O)NC(=O)[C@H](CC(C)C)NC(=O)[C@](C)(Cc1ccccc1)NC(=O)[C@H](CCCCN)NC(=O)[C@H](CO)NC(=O)[C@@H](NC(=O)[C@H](CC(=O)O)NC(=O)[C@H](CO)NC(=O)[C@@H](NC(=O)[C@H](Cc1ccccc1)NC(=O)[C@@H](NC(=O)CNC(=O)[C@H](CCC(N)=O)NC(=O)C(C)(C)NC(=O)[C@@H](N)Cc1c[nH]cn1)[C@@H](C)O)[C@@H](C)O)C(C)C)C(C)C)C(=O)N[C@@H](CC(C)C)C(=O)NC(C)(C)C(=O)N[C@@H](CCC(=O)O)C(N)=O) [Peptide 455] | 114 | 127 |
| H[Aib]QGTFTSDVSK[αMeF]LDRK([AEEA-AEEA-γGlu-C20 diacid])RAQDFVRWLL[Aib]E-NH2 (N-terminus assumed; SMILES CC(C)C[C@H](NC(=O)[C@H](Cc1c[nH]c2ccccc12)NC(=O)[C@H](CCCNC(=N)N)NC(=O)[C@@H](NC(=O)[C@H](Cc1ccccc1)NC(=O)[C@H](CC(=O)O)NC(=O)[C@H](CCC(N)=O)NC(=O)[C@H](C)NC(=O)[C@H](CCCNC(=N)N)NC(=O)[C@H](CCCCNC(=O)COCCOCCNC(=O)COCCOCCNC(=O)CC[C@H](NC(=O)CCCCCCCCCCCCCCCCCCC(=O)O)C(=O)O)NC(=O)[C@H](CCCNC(=N)N)NC(=O)[C@H](CC(=O)O)NC(=O)[C@H](CC(C)C)NC(=O)[C@](C)(Cc1ccccc1)NC(=O)[C@H](CCCCN)NC(=O)[C@H](CO)NC(=O)[C@@H](NC(=O)[C@H](CC(=O)O)NC(=O)[C@H](CO)NC(=O)[C@@H](NC(=O)[C@H](Cc1ccccc1)NC(=O)[C@@H](NC(=O)CNC(=O)[C@H](CCC(N)=O)NC(=O)C(C)(C)NC(=O)[C@@H](N)Cc1c[nH]cn1)[C@@H](C)O)[C@@H](C)O)C(C)C)C(C)C)C(=O)N[C@@H](CC(C)C)C(=O)NC(C)(C)C(=O)N[C@@H](CCC(=O)O)C(N)=O) [Peptide 456] | 80.3 | 133 |
| H[Aib]QGTFTSDVSK[αMeF]LDKK([AEEA-AEEA-γGlu-C18 diacid])RAQDFVRWLLA (not fully specified (C-terminus)) [Peptide 459] | 36.9 | 32.7 |
| H[Aib]QGTFTSDVSK[αMeF]LDKK([AEEA-AEEA-γGlu-C20 diacid])RAQDFVRWLLAE-NH2 [Peptide 460] | 66.5 | 117 |
